These results are taken from the DeepSol protein solubility set.

The series can be described thus: soluble on expression in E. coli; label from the status in PepcDB or PDB records.
In the case of “MSLDIENTLLKQEAWRFIDNTTINPAFDAIQSFATDDTLCRSVGARMVPPTVRGWVHEKTVSLGIQDSKLPDIDKGIAFLQEQGYRVVVRNSGGLAVVLDSGVLNLSMVLPDAERGIAIERGYETMFTLIKDMFVDCNEVIEAKEIVNSYCPGSYDLSIQGQKFAGISQRRMAKGVAVQIYLAVEGDQAARSELIRDFYTISGKDKQTKYSFPDVKPEVMGTLSDLMKENMTVNGCLVRLFNSLRHYAGKLESGTLTPEELDLFPAYYERLIARNDKVLSEGHHHHHH”, the “soluble on expression in E. coli” value is recorded as “soluble”.
Turning to “MSLSEILTIGEPIVTFASKEPDVSLRDALEFHKILGGAELNVAIGAQRLGHSVDYISQVGEEPLGDYVIKTIKEHHVGTRYITRDADYWTAFQLKDRVTQGNPTTQNYRRGSAAAHLTPAVVDQIDLTDVRAAHMSGIFPAISATAEAAFRTLLKRLEAANILTTFDPNLRPTLWPSRGKMVTTLNELAGHAEIVLPGVEEGEILMGSTDPEKIADFYLRGARTKVVIVKVGPAGAYVKQQSGESYTVTGFKVAQVADTVGAGDGFAMGVLTALLEHKSLRSAVMRGNAVGALQVQTYGDNDGYPTPAGLQAFYQQEGVVEEGHHHHHH”, the “soluble on expression in E. coli” value was “not soluble”.
As for “MGHHHHHHAIAENLYFQSKLVEKTTTTEQDNGEDFCRTIIEVSEVNRNVFQAPGGEADPFRVVSGEELHLIPPLNFSMVDNGIFRSGFPDSANFSFLQTLGLRSIIYLCPEPYPESNLQFLKSNGIRLFQFGIEGNKEPFVNIPDHKIRMALKVLLDEKNHPVLIHCKRGKHRTGCLVGCLRKLQKWCLTSIFDEYQRFAAAKARVSDQRFMEIFDVSSFSHIPMSFSCSIR”, the “soluble on expression in E. coli” value was “soluble”.
As for “MGSDKIHHHHHHMIITLQDTETREISAKIDELHEERGEAALGRVLTLLISTNEAELEHDLEVANNASREHPCRVIAVAPSSRKISPEEEHPTFLDAEIRFGSDAGAGEIIVLRPRGGLVRHADTLVIPLLVPDAPVVAWWPNEAPANLSKDLLGSMASSRITDAMHSSNPRRTMDDLRRNRSAKDVDMSWTRLTVWRAMIASMLDQPPHLPVSNVRVTGQKDYLPLDLLAAWLRLRLNVPVMIEEDPNATAVTGVYLTRGDGVLSLERPSTDDGFAVISVPGQSPQTISVPARTLEECLSEELGRLYPDEIYSEVVSQGLDLVKPRQ”, the “soluble on expression in E. coli” value is reported as “not soluble”.
Consider “MSLRISMATFFPQSVTALDSPLYGRSFADDKMRELFSAQSFISRCVETEVALARAQARLGIIPEDAAAGITAAARTFAPEMERLRDDTEIVGYPILPLVEQLSAHAGEAGKYLHWGATTQDIMDTATVLQIRDGLALISRRIESVRKALAALARNHRDTPMAGRTHLQHALPVTFGYKAAVWLSAFDRHAARLEEISPRVLVVEFSGASGTLASLGTRGLDVQRELARELNLGVPSITWHSARDAVAETVQFLALVSGSLGKLAMDISIMMTTELGEVAEPFVRHRGASSTMPQKQNPVSCELILAGARIVRNHATSMLDAMIHDFERATGPWHLEWSAVPEGFAVASGILYQAEFMLGGLQVFPDRMRENLDHSRGLIVAEAVMMALAPHTGRKEAHDIVYLGCRRAVEDKTGLFEVLRTMPEVAKPLGEEALRDLTDPRNYLGSAGAMVDNVLGGREGHHHHHH”, for which the “soluble on expression in E. coli” value was “soluble”.
The entry for “MSLCIIGSGPGGLCMARALKRQGLDYEQFERHGEVGGVWDINNPGTPMYQSAHFISSRDQSGFIDYPMPAHFPDYPSNRQIFEYVRSFAVAFDLYDRIRFNTAVKDVEKEQDGRWLVTLASGERRRYRAVVCATGCNWDPNMPEVKGQFEGTVRHSVTYKNPDEFKGKRVMVIGADNSGADIACDAAKHADKAFISMRRGYHLIPKHLFGMPVDEFGEKGPQLPMWLARPVFQTILRVINGDTRRFGLPRPDHKLFESHPLLNTQLLHYLQHGDIQVKPDVSHYEGQHVVFKDGTREPLDLVLYATGYKWSCPYAAKYFEWQGGRPRLYLSIFSREHHNLFGIGYVETNSSAYKLFDSEAHAVACYLRDQLHQKTQASHFDQLIATDDPDLSGGIKFVKSQRHEVYLEAHALKKYLRKLFHSEGHHHHHH” is “not soluble”.
For “MEILIATGRLAENTVRKAAGEKADVLVADIDIAAFITPKKLTRAFEEAGLSKKYDLILLPGLVPGDFSKVSDELDCKIRLGPKHAYDLGFVLRFAEEVEFSVKVPACELLADVRKEEALELIREAEEEAVSPLSLRGVKLGGNSRMKVMGEIVGAAELNPADLEIKIEAFIARGADIIDLGATLNTLPGQVRSTVFLAKSLTDIPISIDTLDPELIKEGIEAGADLVLSLNSTNMETAGSVVAKAGVAAVIIPDEGNSLESLVNNIESARRLGIERIIADPILDPVGHNITESIVRYHEFHRRYPDIPLFFGAGNVTELMDVDTIGVNATLCGIGAETGASILFTPEYSDKAQGSIGELKKASEMMQLCRIRESSPKDLGIDLLFIKEKRKRPDSPLPKKVITARASKNWRQDPAGPIRVRIVPDKINGNGGLIVAEHEKAAIAGESAREVMDTLIELELVSSLDHAAYLGRELEKAELALRFNRSYAQDDIF”, the “soluble on expression in E. coli” value is listed as “not soluble”.
Take “GGSHMELPGSSMKPSGEDQAALAAGPWEECFQAAVQLALRAGQIIRKALTEEKRVSTKTSAADLVTETDHLVEDLIISELRERFPSHRFIAEEAAASGAKCVLTHSPTWIIDPIDGTCNFVHRFPTVAVSIGFAVRQELEFGVIYHCTEERLYTGRRGRGAFCNGQRLRVSGETDLSKALVLTEIGPKRDPATLKLFLSNMERLLHAKAHGVRVIGSSTLALCHLASGAADAYYQFGLHCWDLAAATVIIREAGGIVIDTSGGPLDLMACRVVAASTREMAMLIAQALQTINYGRDDEK”: the “soluble on expression in E. coli” value was “soluble”.
Regarding “MKELVEIAVPENLVGAILGKGGKTLVEYQELTGARIQISKKGEFLPGTRNRRVTITGSPAATQAAQYLISQRVTYEQGVRASNPQKV”, the “soluble on expression in E. coli” value was “soluble”.
Regarding “CQDYIPVKDQKVVDLMSRDVVAIDASDRLVDVVEFLCIDKEQLYPTSSMGIATRLTSLSLEERAKSMKVSKPQVLPVLENGQMVGVVTRQEVLKALRPVFGERLNLVEDKALETA”, the “soluble on expression in E. coli” value is “not soluble”.
Consider “QYFTGGLSLEPSNQAGFSQSQSASNTAAQDENAQFVAAILGTTETVWNQLLQGQYVEPKLVLYRNMTSTGCGMGQAQSGPFYCPADGKVYIDLSFLEELKKLGASGDFAFAYVIAHEVGHHVQNLLGTSTKVRQAQQAAGKAQANQLSVALELQADCYAGVWGHYVDRQLNLLEPGDVEEGIAAASAVGDDRLQKMAGRAVQPEAFTHGSSADRVKWFNIGFASGKPASCNTF”, for which the “soluble on expression in E. coli” value is “not soluble”.
Take “MAHHHHHHMGSSSPSSLLPPALMPCHVWEGREEGISVETARGRREVEINRKKGHMASPKEMYEKECRALGVPPNSGLLRMLPESTVNLSGLSVMHLGHNFLGDRGVVPFVHIIAHASSLHTLNLRENGIGNEGVRVLCRGLRRLPALKVLELSGNPFTFLAARQLVYLCEDSPVLSVIGVEGTLMTEKLKTSIIHRIREAVKRREARKQLSQQPSADRDDGQKDMAEGVAEAEGKVVERAAPIAAEEATTLRSRNVGGPCLRKSVLSLVSQDSMSTAMSSKFKKNEPDDQAGPRGANEFASPCSPLPPPPPDDAHQSPLWFDASEDEEQKEEKKEISVATAENDEKMMIDTAGSISFLVDVEELRANSVERELRAQEEMLPWQVSRADDPLRSLHSTHTRIASHRTTEKRSESGTAISFPSSFTLELRTAEAEGKLAECTKSTKGDDFLDLLFGSEVD”: the “soluble on expression in E. coli” value is recorded as “not soluble”.
For the sequence “MANEQVLTAEQVLEKASQYLVDEDIELVARAYEYARDAHSEQYRKSGEPYIIHPIQVAGVLVDLHMDPATVSAGFLHDVVEDTEITLEDIEREFNKEIAMLVDGVTKLGKIKYKSHEQQQAENHRKMFIAMAQDIRVILIKLADRLHNMRTLKHLPQEKQRRIANETLEIFAPLAHRLGISTIKWELEDTSLRYLNPQQYYRIVNLMKRKRAEREEYLDEVMTGIREKLDEVAIQPEISGRPKHIYSIYRKMALQNKQFNEIYDLLAVRVVVNSIKDCYAVLGIIHTCWKPMPGRFKDYIAMPKANLYQSLHTTVIGPKGDPLEVQIRTKEMHEIAEFGIAAHWAYKEGKTAETTGTLEKKLTWFRQILEWQNEASNAEEFMESLKIDLFSDMVFVFTPKGDVMELPLGSVPIDFAYRVYSEIGNKTIGAKVNGKMVTLDYKLKTGDIIEILTSKHSYGPSQDWVKLAQTSHAKNKIRQFFKKQRRDENIEKGRELVEKEVRSLEYEMKEVLAPDNLKRVAEKFNFANEEDMFAAVGYNGITASQIVTRLTDKFRKQREEEEIVEVKEVRKPMKIRKWDSGVKVSGADNLLIRLSKCCNPVPGDDIVGYITKGRGVSIHRRDCVNVHTEEAIERLLEVEWEGSPEKEIEYNVDIEISGYDRRGLLNEVLQAVTETKTYISAVSGRSDRNKMATINMSISIRNLQHLKKVVERIKRVPEIYAVRRMMH”, the “soluble on expression in E. coli” value is “not soluble”.
As for “MGSDKIHHHHHHMDSKHSMISLKQKLSGLLDVIPKQSEIIYADYPLYGNVGDLFIMKGTEAFFKEHGIRVRKRWNPDNFPIGRKLDPNLIIVCQGGGNFGDLYPYYQGFREKIVQTYPNHKIVILPQSIYFQNKDNLKRTAEIFSKHANLHIMTREKASYATAQAYFTTNHIQLLPDMAHQLFPVIPTQQPSNQKLRFIRTDHEANQALQEHAEAESYDWRTVLSASDRRTIAFLQTLNVLNKKAGNPLPIAYIWEKYSDYIVQKAIRFFSRYESVETSRLHGHILSSLLQKENTVIDNSYGKNANYFHTWMEGVPSTRLIQHASKKENLPAHM”, the “soluble on expression in E. coli” value is reported as “not soluble”.
With “MMKIVPPKPFFFEAGERAVLLLHGFTGNSADVRMLGRFLESKGYTCHAPIYKGHGVPPEELVHTGPDDWWQDVMNGYEFLKNKGYEKIAVAGLSLGGVFSLKLGYTVPIEGIVTMCAPMYIKSEETMYEGVLEYAREYKKREGKSEEQIEQEMEKFKQTPMKTLKALQELIADVRDHLDLIYAPTFVVQARHDEMINPDSANIIYNEIESPVKQIKWYEQSGHVITLDQEKDQLHEDIYAFLESLDW”, the “soluble on expression in E. coli” value is “soluble”.
As to “MGSDKIHHHHHHMKQTDVVVIGSGVGGLSCAALLARYGFDVTVCESHSIPGGAAHGFERQGFKFDSGPSLYSGLSYSPSVNPLRQVLDAVGVDLPCVTYDTWGCCLPEGDFDAAVGAEQFCEVLGRLRGEAAVAEWRRLQQVMTPLAQAAIALPPAALRWDIGAALTIGRFAPTLAKQSANFFKLTGPFSRIMDGVVHDPFISNWLNLLCFLLSGLPASGTNAAEVAFMFADWYRPGVALDYPIGGSGALVNALVEGFKKHGGELLLHTHVEQVLVEGNKAAGVRLGDGQEIRARRAVVSNASVWDTLKLLPEGAVSQKFRSQRQATPECDSFMHLHLGINAQGLPPDLACHYIVVNDWELEITAPQNVILVSIPSILDPSLAPQGKHVIHVYTPGNEPYTLWQGMDRRSQEYEQQKRSRAEVMWQAVERIIPDIRSRCEIQLVGTPLTHERFLRRYRGSYGPAISAASGLFPGHGTPLPGLMCCGDSTFPGIGLPAVAASGMIVANTLAPVSQHLAMLDRVGL”, the “soluble on expression in E. coli” value is on record as “not soluble”.
On to “AHHHHHHGSRYFFYPNSVAIFGSFREGAIAREILRNIVEGGFEGKIIPVNPKGGEVEVAGKKFNIKEKLDEPVDVSIIAIPAKLVPELIRGLKGLTKGAVVISAGFSEVGNVELEKELIKAAKEAGIRVIGPNCAGIFGVHAKFYGSFEVRVNPGGLALISQSGAFGGAALAMGNEEGIGFSAFVSYGNAADLDESDFLRFFADDENTRVIGLYIEGVKDGRKFLDALRYAASKKPVIILKAGKSRAGARAAASHTGSLAGSYEIYRAAFRQAGAIEVEEMEELFDAAKAFEMYERAGRRVAIITNSGGPGVLATDKLERLGLEIAKLTEETVEELRSFLPPQCSVKNPVDLIADADYERYKRAIEVVCRDENVDAILVICVPPIFIPSEEIARAVVEANCDKPIIVNFMAGELVREGIKILESKKIKNFPTPERAAKALYWLSLRSSSE”, for which the “soluble on expression in E. coli” value was “soluble”.
Take “MSNVYWPLYEVFVRGKQGLSHRHVGSLHAADERMALENARDAYTRRSEGCSIWVVKASEIVASQPEERGEFFDPAESKVYRHPTFYTIPDGIEHM”: the “soluble on expression in E. coli” value is on record as “soluble”.
